One block for each molecule: values may come before it.
How the values were obtained:
PA1618 [1] = biological target: T1, PA1618 (Pseudomonas aeruginosa, UniProt Q9I3A4); assay: steady-state competitive inhibition of benzoyl-CoA hydrolysis; type: biochemical
PA1618 [2] = biological target: T1, PA1618; assay: X-ray crystal structure; type: biochemical
PA1618 [3] = biological target: T1, PA1618; assay: X-ray crystal structure; type: biochemical; remark: listed apart in the source
[4] = test system: CC(C)(COP(=O)(O)OP(=O)(O)OC[C@H]1O[C@@H](n2cnc3c(N)ncnc32)[C@H](O)[C@@H]1OP(=O)(O)O)[C@@H](O)C(=O)NCCC(=O)NCCSC(=O)c1ccccc1; assay: steady-state kinetics; type: biochemical, Pseudomonas aeruginosa; settings: pH 7.5; 25.0 °C
purified protein = substrate: CC(C)(COP(=O)(O)OP(=O)(O)OC[C@H]1O[C@@H](n2cnc3c(N)ncnc32)[C@H](O)[C@@H]1OP(=O)(O)O)[C@@H](O)C(=O)NCCC(=O)NCCSC(=O)c1ccc(O)cc1; assay: purified protein; type: biochemical, Pseudomonas aeruginosa; settings: pH 7.5; 25.0 °C
steady-state kinetics [5] = substrate: CC(C)(COP(=O)(O)OP(=O)(O)OC[C@H]1O[C@@H](n2cnc3c(N)ncnc32)[C@H](O)[C@@H]1OP(=O)(O)O)[C@@H](O)C(=O)NCCC(=O)NCCSC(=O)c1ccccc1; assay: steady-state kinetics; type: biochemical, Pseudomonas aeruginosa; settings: pH 7.5; 25.0 °C; remark: listed apart in the source
steady-state kinetics [6] = substrate: CC(C)(COP(=O)(O)OP(=O)(O)OC[C@H]1O[C@@H](n2cnc3c(N)ncnc32)[C@H](O)[C@@H]1OP(=O)(O)O)[C@@H](O)C(=O)NCCC(=O)NCCSC(=O)c1cc(O)c2ccccc2c1O; assay: steady-state kinetics; type: biochemical, Pseudomonas aeruginosa; settings: pH 7.5; 25.0 °C
steady-state kinetics [7] = substrate: CC(C)(COP(=O)(O)OP(=O)(O)OC[C@H]1O[C@@H](n2cnc3c(N)ncnc32)[C@H](O)[C@@H]1OP(=O)(O)O)[C@@H](O)C(=O)NCCC(=O)NCCSC(=O)/C=C/c1ccc(O)cc1; assay: steady-state kinetics; type: biochemical, Pseudomonas aeruginosa; settings: pH 7.5; 25.0 °C
steady-state kinetics [8] = substrate: CCCCCC(=O)SCCNC(=O)CCNC(=O)[C@H](O)C(C)(C)COP(=O)(O)OP(=O)(O)OC[C@H]1O[C@@H](n2cnc3c(N)ncnc32)[C@H](O)[C@@H]1OP(=O)(O)O; assay: steady-state kinetics; type: biochemical, Pseudomonas aeruginosa; settings: pH 7.5; 25.0 °C

Molecule: CCCCCCCCCCC(=O)SCCNC(=O)CCNC(=O)[C@H](O)C(C)(C)COP(=O)(O)OP(=O)(O)OC[C@H]1O[C@@H](n2cnc3c(N)ncnc32)[C@H](O)[C@@H]1OP(=O)(O)O [Undecanyl-CoA]
Ki (PA1618 [1]; read-out: PA1618 Ki): 3.4 ± 0.3 µM

Molecule: CC(C)(COP(=O)(O)OP(=O)(O)OC[C@H]1O[C@@H](n2cnc3c(N)ncnc32)[C@H](O)[C@@H]1O)[C@@H](O)C(=O)NCCC(=O)NCCOC(=O)c1ccccc1 [Benzoyl-OdCoA]
Ki (PA1618 [2]): 19 ± 3 µM

Molecule: PA1618 (Pseudomonas aeruginosa PAO1; Q49A)
Km [4]: 5.0 ± 0.3 µM
kcat [4]: 0.022 ± 0.003 s⁻¹
kcat/Km [4]: 4400 M⁻¹ s⁻¹

B1: PA1618 (Pseudomonas aeruginosa PAO1) (protein)
chain: MSLWRQTPDLEQLNASQKNSIGDLLGIRFEAFDDESLTASMPVDSRTHQPFGLLHGGASVVLAESLGSMASYLCVDTSQYYCVGLEVNANHLRGLRSGRVTAVARAIHLGRTTHVWDIRLSGDDGKPSCIARLTMAVVPLAGRAG
Km (purified protein): 3.6 ± 0.3 µM
kcat (purified protein): 9.3 ± 0.2 s⁻¹
kcat/Km (purified protein): 3.1e+06 M⁻¹ s⁻¹
Km (steady-state kinetics [5]): 12 ± 1 µM
kcat (steady-state kinetics [5]): 56 ± 1 s⁻¹
kcat/Km (steady-state kinetics [5]): 4.6e+06 M⁻¹ s⁻¹
Km (steady-state kinetics [6]): 2.1 ± 0.1 µM
kcat (steady-state kinetics [6]): 0.55 ± 0.01 s⁻¹
kcat/Km (steady-state kinetics [6]): 280000 M⁻¹ s⁻¹
Km (steady-state kinetics [7]): 2.7 ± 0.2 µM
kcat (steady-state kinetics [7]): 2.5 ± 0.1 s⁻¹
kcat/Km (steady-state kinetics [7]): 930000 M⁻¹ s⁻¹
Km (steady-state kinetics [8]): 20 ± 2 µM
kcat (steady-state kinetics [8]): 0.11 ± 0.01 s⁻¹
kcat/Km (steady-state kinetics [8]): 5200 M⁻¹ s⁻¹

Now from value to molecule:

Ki (PA1618 [1]): 12 ± 1 µM
Molecule: CC(C)(COP(=O)(O)OP(=O)(O)OC[C@H]1O[C@@H](n2cnc3c(N)ncnc32)[C@H](O)[C@@H]1OP(=O)(O)O)[C@@H](O)C(=O)NCCC(=O)NCCSCC(=O)c1ccc(O)cc1O [2,4-Dihydroxyphenacyl-CoA]

Ki (PA1618 [3]): 35 ± 5 µM
Molecule: CC(C)(COP(=O)(O)OP(=O)(O)OC[C@H]1O[C@@H](n2cnc3c(N)ncnc32)[C@H](O)[C@@H]1OP(=O)(O)O)[C@@H](O)C(=O)NCCC(=O)NCCSCC(=O)c1ccccc1 [Phenacyl-CoA]

— PMC6328252 (Chembiochem : a European journal of chemical biology, 2017)
